# From paper PMC10583557 (Molecular Biology and Evolution, 2023)
# T1: C. apon LDH (Cyanobacterium aponinum, UniProt K9Z684)
# T1 sequence (K9Z684 1-331): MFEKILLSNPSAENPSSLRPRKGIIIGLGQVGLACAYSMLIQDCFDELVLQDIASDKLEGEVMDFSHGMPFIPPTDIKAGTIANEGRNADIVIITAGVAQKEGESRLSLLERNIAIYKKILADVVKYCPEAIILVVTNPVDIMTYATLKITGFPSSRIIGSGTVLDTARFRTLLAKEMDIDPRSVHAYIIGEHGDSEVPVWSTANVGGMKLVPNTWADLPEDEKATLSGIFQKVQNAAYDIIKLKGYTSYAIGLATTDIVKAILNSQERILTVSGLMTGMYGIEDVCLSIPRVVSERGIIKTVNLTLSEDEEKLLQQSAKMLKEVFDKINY
# B1: ΔN-ter C. apon LDH (N-terminal sequence … deleted) (domain or fragment, Cyanobacterium aponinum, UniProt K9Z684 21-331, looked up)
# chain: RKGIIIGLGQVGLACAYSMLIQDCFDELVLQDIASDKLEGEVMDFSHGMPFIPPTDIKAGTIANEGRNADIVIITAGVAQKEGESRLSLLERNIAIYKKILADVVKYCPEAIILVVTNPVDIMTYATLKITGFPSSRIIGSGTVLDTARFRTLLAKEMDIDPRSVHAYIIGEHGDSEVPVWSTANVGGMKLVPNTWADLPEDEKATLSGIFQKVQNAAYDIIKLKGYTSYAIGLATTDIVKAILNSQERILTVSGLMTGMYGIEDVCLSIPRVVSERGIIKTVNLTLSEDEEKLLQQSAKMLKEVFDKINY
# B2: Cyanobacterium aponinum lactate dehydrogenase, wild type (enzyme)
# chain: T1 sequence (K9Z684 1-331)
# How the values were obtained:
# C. apon LDH = molecular target: T1, C. apon LDH; assay: X-ray crystal structure of complex; assay type: binding; conditions: 2 mM each
# [1] = molecular target: Y190W C. apon LDH (Cyanobacterium aponinum); assay: AUC
# SEC-MALS = molecular target: the molecule itself; assay: SEC-MALS
molecule,measurement,setting,value
NC(=O)C(=O)O [oxamate],X-ray crystal structure of complex,"C. apon LDH; active site, substrate analogue, with NADH and FBP",active sites of each monomer occupied with a NADH and an oxamate molecule
Y190W C. apon LDH (enzyme),stoichiometry N,[1],4
NC(=O)C1=CN([C@@H]2O[C@H](COP(=O)(O)OP(=O)(O)OC[C@H]3O[C@@H](n4cnc5c(N)ncnc54)[C@H](O)[C@@H]3O)[C@@H](O)[C@H]2O)C=CC1 [NADH],X-ray crystal structure of complex,"C. apon LDH; cofactor site, with oxamate and FBP",active sites of each monomer occupied with a NADH and an oxamate molecule
B1,stoichiometry N,SEC-MALS,2
B2,stoichiometry N,SEC-MALS,4
